US7427498B2, “Composition, methods and reagents for the synthesis of a soluble form of human PHEX” (Universite De Montreal, priority 1999, dated 2008)
Entries after “also recorded” stand apart in the source; their conditions may differ.

T1: PTHrP107-139, P12272
T1 chain: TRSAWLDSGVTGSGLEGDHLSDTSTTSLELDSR


Columns and labels:
secPHEX = experiment: Inhibition of secPHEX enzymatic activity (cleavage of PTHrP107-139, RP-HPLC); type: biochemical, human; conditions: 0.001 M inhibitor added to the reaction mixture
Description: (§1) FIG. 6: Enzymatic assay for secPHEX. Purified secPHEX (2 μg) was incubated in the presence of 10 μg PTHrP107-139 and the reaction mixture analyzed by RP-HPLC.
(§2) An aliquot of purified PHEX containing 2 μg of protein was incubated for 15 min at 37° C. in a volume of 200 μl of 50 mM MES (2-(N-Morpholinoethanesulfonic acid, pH 6.5, containing 150 mM NaCl and 10 μg of PTHrP107-139 as a substrate. After the incubation period, the hydrolysis was stopped by the addition of trifluoroacetic acid to a final concentration of 0.1%. Identification of peptide products was performed by reverse phase high performance liquid chromatography (RP-HPLC) on a C18 μBondapak analytical column (Waters) with a UV detector set at 214 nm. Peptides were resolved with a linear gradient of 5% B to 85% B in 45 min at the flow rate of 0.4 ml/min [mobile phase A=0.1% trifluoroacetic acid; mobile phase B=80% acetonitrile (CH3CN), 0.1% trifluoroacetic acid].

PTHrP107-139, P12272 = biological target: T1, PTHrP107-139, P12272
PTHrP107-139 = experiment: Assay for the activity of PHEX: digestion of PTHrP107-139 by purified secPHEX, RP-HPLC; type: biochemical
Description: as §1, §2

Molecule | inhibition of secPHEX enzymatic activity (degradation of PTHrP107-139) (secPHEX) | PTHrP107-139 peak on the chromatogram (RP-HPLC) after 15 min of incubation (PTHrP107-139, P12272) | PTHrP107-139 peak on the chromatogram, % of its original surface (PTHrP107-139; 2 μg secPHEX, 10 μg PTHrP107-139, 15 min at 37° C., 50 mM MES pH 6.5, 150 mM NaCl) [%] | enzymatic activity in other buffers (PTHrP107-139; Acetate, HEPES and Tris buffers covering a pH range from 4.0 to 8.5) | enzymatic activity on PTHrP107-139 (qualitative) (PTHrP107-139; purified secPHEX, conditions of Methods)
c1cnc2c(c1)ccc1cccnc12 [O-phenantrolin] | fully inhibited | – | – | – | –
O=C(O)CN(CCN(CC(=O)O)CC(=O)O)CC(=O)O [EDTA] | totally inhibited; also recorded: fully inhibited | – | – | – | –
secPHEX, soluble secreted form of recombinant human PHEX (construct 3, pCDNA3/RSV/PHEX-MutE) (protein) MEAETGSSVETGKKANRGTRIALVVFVLTVIAQQTTSQGLLSLQAKQEYCLKPECIEAAAAILSKVNLSVDPCDNFFRFACDGWISNNPIPEDMPSYGVYPWLRHNVDLKLKELLEKSISRRRDTEAIQKAKILYSSCMNEKAIEKADAKPLLHILRHSPFRWPVLESNIGPEGVWSERKFSLLQTLATFRGQYSNSVFIRLYVSPDDKASNEHILKLDQATLSLAVREDYLDNSTEAKSYRDALYKFMVDTAVLLGANSSRAEHDMKSVLRLEIKIAEIMIPHENRTSEAMYNKMNISELSAMIPQFDWLGYIKKVIDTRLYPHLKDISPSENVVVRVPQYFKDLFRILGSERKKTIANYLVWRMVYSRIPNLSRRFQYRWLEFSRVIQGTTTLLPQWDKCVNFIESALPYVVGKMFVDVYFQEDKKEMMEELVEGVRWAFIDMLEKENEWMDAGTKRKAKEKARAVLAKVGYPEFIMNDTHVNEDLKAIKFSEADYFGNVLQTRKYLAQSDFFWLRKAVPKTEWFTNPTTVNAFYSASTNQIRFPAGELQKPFFWGTEYPRSLSYGAIGVIVGHEFTHGFDNNGRKYDKNGNLDPWWSTESEEKFKEKTKCMINQYSNYYWKKAGLNVKGKRTLGENIADNGGLREAFRAYRKWINDRRQGLEEPLLPGITFTNNQLFFLSYAHVRCNSYRPEAAREQVQIGAHSPPQFRVNGAISNSEEFQKAFNCPPNSTMNRGMDSCRLW | – | PTHrP107-139 peak on the chromatogram was decreased to 15% of its original surface after only 15 min of incubation | 15 | Activity was also observed | active; also recorded: can degrade this peptide
